The record followed here is patent US20140030725.

This data set deals with MMP-2 sensor (1A5 variant backbone with the human MMP-2 recognition site PLGMWSR, N-terminal GST tag with TEV site, C-terminal 5xHQ tag).

B1: Activated MMP-2 (Anaspec) (protein)
chain: YNFFPRKPKWDKNQITYRIIGYTPDLDPETVDDAFARAFQVWSDVTPLRFSRIHDGEADIMINFGRWEHGDGYPFDGKDGLLAHAFAPGTGVGGDSHFDDDELWTLGEGQVVRVKYGNADGEYCKFPFLFNGKEYNSCTDTGRSDGFLWCSTTYNFEKDGKYGFCPHEALFTMGGNAEGQPCKFPFRFQGTSYDSCTTEGRTDGYRWCGTTEDYDRDKKYGFCPETAMSTVGGNSEGAPCVFPFTFLGNKYESCTSAGRSDGKMWCATTANYDDDRKWGFCPDQGYSLFLVAAHEFGHAMGLEHSQDPGALMAPIYTYTKNFRLSQDDIKGIQELYGASPDIDLGTGPTPTLGPVTPEICKQDIVFDGIAQIRGEIFFFKDRFIWRTVTPRDKPMGPLLVATFWPELPEKIDAVYEAPQEEKAVFFAGNEYWIYSASTLERGYPKPLTSLGLPPDVQRVDAAFNWSKNKKTYIFAGDKFWRYNEVKKKMDPGFPKLIADAWNAIPDNLDAVVDLQGGGHSYFFKGAYYLKLENQSLKSVKFGSIKSDWLGC
As to B1, the “luminescence, fold increase over control (background from MMP-2 sensor); least amount of MMP-2 detected” value is listed as “can be used to detect as little as 0.75 ng protein”.
